{"source": "paper PMC8446801", "about": "“Coiled-coil binding of the leucine zipper domains of APOL1 is necessary for the open cation channel conformation” (The Journal of Biological Chemistry, 2021)", "key": {"APOL1 G0 (human)": {"target": "APOL1 G0 (human) (UniProt O14791)"}, "APOL1 LZA 1 (human)": {"target": "APOL1 LZA 1 (human) (UniProt O14791)"}, "[1]": {"target": "the molecule itself", "test": "cross-linking; untreated control protein (lane c): thawed on ice from -80 °C and immediately diluted into SDS sample buffer; nonreducing SDS-PAGE, silver stain"}, "[2]": {"target": "the molecule itself", "test": "cross-linking; disulfide trapping between substituted cysteines, no membranes; protein (~0.159 uM) in 0.2 ml buffer (5 mM succinate, 5 mM Hepes, 0.5 mM KCl, 5 mM CaCl2), room temperature, 1 h at pH 5.6 followed by 1 h at pH 7.2; nonreducing SDS-PAGE, silver stain"}}}
{"binder": "APOL1 G0 (natural protein) EEAGARVQQNVPSGTDTGDPQSKPLGDWAAGTMDPESSIFIEDAIKYFKEKVSTQNLLLLLTDNEAWNGFVAAAELPRNEADELRKALDNLARQMIMKDKNWHDKGQQYRNWFLKEFPRLKSKLEDNIRRLRALADGVQKVHKGTTIANVVSGSLSISSGILTLVGMGLAPFTEGGSLVLLEPGMELGITAALTGITSSTIDYGKKWWTQAQAHDLVIKSLDKLKEVKEFLGENISNFLSLAGNTYQLTRGIGKDIRALRRARANLQSVPHASASRPRVTEPISAESGEQVERVNEPSILEMSRGVKLTDVAPVSFFLVLDVVYLVYESKHLHEGAKSETAEELKKVAQELEEKLNILNNNYKILQADQEL", "values": [{"measurement": "trypanosome lysis (T. b. brucei, 24 h), IC50", "setting": "APOL1 G0 (human)", "value": 0.125, "unit": "µg/mL"}]}
{"binder": "APOL1 LZA 1 (natural protein) EEAGARVQQNVPSGTDTGDPQSKPLGDWAAGTMDPESSIFIEDAIKYFKEKVSTQNLLLLLTDNEAWNGFVAAAELPRNEADELRKALDNLARQMIMKDKNWHDKGQQYRNWFLKEFPRLKSKLEDNIRRLRALADGVQKVHKGTTIANVVSGSLSISSGILTLVGMGLAPFTEGGSLVLLEPGMELGITAALTGITSSTIDYGKKWWTQAQAHDLVIKSLDKLKEVKEFLGENISNFLSLAGNTYQLTRGIGKDIRALRRARANLQSVPHASASRPRVTEPISAESGEQVERVNEPSILEMSRGVKLTDVAPVSFFLVLDVVYLVYESKHLHEGAKSETAEEAKKVAQELEEKLNILNNNYKILQADQEL", "values": [{"measurement": "trypanosome lysis (T. b. brucei, 24 h), IC50", "setting": "APOL1 LZA 1 (human)", "value": 0.6, "unit": "µg/mL"}]}
{"binder": "APOL1 LZA A375C (natural protein, human, UniProt O14791 28-398, looked up, Apolipoprotein L-I (APOL1) G0, human, aa 28-398, isoform K150, I228, K255 (GenBank AAI12944.2), every d position leucine of the ZIP domain to alanine plus A375C; Disulfide dimers were already present in the starting material (formed during purification); source: E. coli BL21-DE3-RIPL, purified (nickel-chelate chromatography, SEC); not shown: His6, N-terminal, kept) EEAGARVQQNVPSGTDTGDPQSKPLGDWAAGTMDPESSIFIEDAIKYFKEKVSTQNLLLLLTDNEAWNGFVAAAELPRNEADELRKALDNLARQMIMKDKNWHDKGQQYRNWFLKEFPRLKSKLEDNIRRLRALADGVQKVHKGTTIANVVSGSLSISSGILTLVGMGLAPFTEGGSLVLLEPGMELGITAALTGITSSTIDYGKKWWTQAQAHDLVIKSLDKLKEVKEFLGENISNFLSLAGNTYQLTRGIGKDIRALRRARANLQSVPHASASRPRVTEPISAESGEQVERVNEPSILEMSRGVKLTDVAPVSFFLVLDVVYLVYESKHLHEGAKSETAEEAKKVCQEAEEKLNIANNNYKIAQADQEL", "values": [{"measurement": "stoichiometry N", "setting": "[1]", "value": 2}]}
{"binder": "APOL1 A375C (natural protein, human, UniProt O14791 28-398, looked up, Apolipoprotein L-I (APOL1) G0, human, aa 28-398 (without the signal peptide), most common isoform K150, I228, K255 (GenBank AAI12944.2); Cysteine at the a position of the C-terminal leucine zipper (ZIP) domain; APOL1 has no endogenous cysteines; Stored with 1 mM DTT in the SEC buffer; also called apolipoprotein L-I A375C; source: E. coli BL21-DE3-RIPL, purified (nickel-chelate chromatography, …)) EEAGARVQQNVPSGTDTGDPQSKPLGDWAAGTMDPESSIFIEDAIKYFKEKVSTQNLLLLLTDNEAWNGFVAAAELPRNEADELRKALDNLARQMIMKDKNWHDKGQQYRNWFLKEFPRLKSKLEDNIRRLRALADGVQKVHKGTTIANVVSGSLSISSGILTLVGMGLAPFTEGGSLVLLEPGMELGITAALTGITSSTIDYGKKWWTQAQAHDLVIKSLDKLKEVKEFLGENISNFLSLAGNTYQLTRGIGKDIRALRRARANLQSVPHASASRPRVTEPISAESGEQVERVNEPSILEMSRGVKLTDVAPVSFFLVLDVVYLVYESKHLHEGAKSETAEELKKVCQELEEKLNILNNNYKILQADQEL", "values": [{"measurement": "stoichiometry N", "setting": "[2]", "value": 2}]}
{"binder": "APOL1 A363C (natural protein, human, UniProt O14791 28-398, looked up, Apolipoprotein L-I (APOL1) G0, human, aa 28-398, isoform K150, I228, K255 (GenBank AAI12944.2); Cysteine in the predicted turn region between the pore-lining region and the ZIP domain, outside the ZIP domain; source: E. coli BL21-DE3-RIPL, purified (nickel-chelate chromatography, SEC); not shown: His6, N-terminal, kept) EEAGARVQQNVPSGTDTGDPQSKPLGDWAAGTMDPESSIFIEDAIKYFKEKVSTQNLLLLLTDNEAWNGFVAAAELPRNEADELRKALDNLARQMIMKDKNWHDKGQQYRNWFLKEFPRLKSKLEDNIRRLRALADGVQKVHKGTTIANVVSGSLSISSGILTLVGMGLAPFTEGGSLVLLEPGMELGITAALTGITSSTIDYGKKWWTQAQAHDLVIKSLDKLKEVKEFLGENISNFLSLAGNTYQLTRGIGKDIRALRRARANLQSVPHASASRPRVTEPISAESGEQVERVNEPSILEMSRGVKLTDVAPVSFFLVLDVVYLVYESKHLHEGCKSETAEELKKVAQELEEKLNILNNNYKILQADQEL", "values": [{"measurement": "binding result", "setting": "[2]", "value": "binds"}]}
